Measurements taken from patent US5985836A, “Alpha-1 proteinase inhibitor binding peptides” (Bayer Corporation, priority 1998, dated 1999).
One block for each substance: values may come before it. Ends that are not written are not given here.

Legend:
A1PI [1] = target: T1, A1PI (Homo sapiens, UniProt P01009); assay: Capture and elution of active A1PI with 2M urea buffer (elastase inhibition activity assay and immunonephelometry); type: binding; conditions: 4° C.
T1 construct: Human plasma is currently the only approved source of therapeutic AlPI

AlPI = target: T2, AlPI (Homo sapiens, UniProt P01009); assay: Effect of peptide density on AlPI capture from Eff. II+III, 4M GdnHCl final strip; type: binding; conditions: 4° C.; for Mass AlPI per Eluate Fraction, 1M NaCl / Mass AlPI per Eluate Fraction, Flowthrough / Mass AlPI per Eluate Fraction, 4M GdnHCl: * Below detection limit
T2 construct: Eff; II+III is a process intermediate in the Cohn plasma fractionation process; tissue Bayer Corporation (Clayton, N.C.); host or cells: plasma fraction: Cohn Effluent II+III
Experimental: The substitution density of the peptide VIFLVR (SEQ ID NO:37) on the Tosohaas resin was reduced by the varying the ratio of Fmoc-L-Ala/Boc-L-Ala following linkage of the Totda linker. A similar procedure was outlined previously (Buettner et al. 1997). The peptide was then synthesized onto these resins. A 1.0 ml aliquot of neat Eff. II+III was injected onto the columns, and the chromatography cycle was the same as used for other studies involving Eff. II+III. The one exception was the use of 4M guanidine hydrochloride (GdnHCl) in lieu of 2% acetic acid as the final strip.

A1PI [2] = target: T1, A1PI; assay: Purification of A1PI from Effluent II+III on peptide column, A1PI mass balance; type: binding; conditions: 1 ml Eff. II+III, 4° C.; for Mass A1PI per Eluate Fraction, 2% Acetic Acid / Mass A1PI per Eluate Fraction, Flowthrough / Mass A1PI per Eluate Fraction, 1M NaCl: * Below detection limit
Procedure, shortened: (§1)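 Peptide-ligand columns were loaded with 1 ml Cohn Effluent II+III (20% v/v ethanol, 20-25 mg/ml hSA, ~1 mg/ml A1PI, other plasma proteins at 0.1-1 mg/ml) using a 10 min residence time at 4° C. Step elutions at 865 μl/min used 1M NaCl, 3M NaCl, then 2% acetic acid, and protein mass balances were tracked across fractions.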

Immunoglobulin A (IgA) = assay: Purification from Effluent II+III, IgA mass balance; type: binding, human; conditions: 1 ml Eff. II+III, 4° C.
Procedure, shortened: as §1

Immunoglobulin G (IgG) = assay: Purification from Effluent II+III, IgG mass balance; type: binding, human; conditions: 1 ml Eff. II+III, 4° C.
Procedure, shortened: as §1

[3] = target: T3, apolipoprotein alpha-1 (Apo A-1) (Homo sapiens, UniProt P02647); assay: Purification from Effluent II+III, Apo A-1 mass balance; type: binding; conditions: 1 ml Eff. II+III, 4° C.
T3 construct: Eff; II+III is a process intermediate in the Cohn plasma fractionation process; tissue Bayer Corporation (Clayton, N.C.); host or cells: plasma fraction: Cohn Effluent II+III
Procedure, shortened: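 Mass balance per protein was determined over the load and each step eluate (1M NaCl, 3M NaCl, 2% acetic acid) of peptide columns challenged with 1 ml Effluent II+III. The feed contained 20% ethanol and 20-25 mg/ml hSA, the flow was 865 μl/min after a 10 min residence, and the temperature was 4° C.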

[4] = * as in Tables 4, 5 (below detection limit)
[5] = A1PI, * as in Tables 4, 5 (below detection limit)

T2 sequence (P01009 25-418): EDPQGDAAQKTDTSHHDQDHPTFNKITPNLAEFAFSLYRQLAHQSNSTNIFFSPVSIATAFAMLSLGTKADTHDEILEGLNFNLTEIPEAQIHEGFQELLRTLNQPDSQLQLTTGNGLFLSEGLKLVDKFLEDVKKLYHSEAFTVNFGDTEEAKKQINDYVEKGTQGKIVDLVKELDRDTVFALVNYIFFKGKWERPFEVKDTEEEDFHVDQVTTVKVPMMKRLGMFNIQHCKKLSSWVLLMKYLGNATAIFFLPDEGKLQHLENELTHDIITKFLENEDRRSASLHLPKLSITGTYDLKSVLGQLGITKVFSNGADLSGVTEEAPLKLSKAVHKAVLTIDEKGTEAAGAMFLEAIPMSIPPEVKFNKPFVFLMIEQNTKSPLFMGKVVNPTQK
T1 sequence (P01009 25-418): as above
T3 sequence (P02647 19-267): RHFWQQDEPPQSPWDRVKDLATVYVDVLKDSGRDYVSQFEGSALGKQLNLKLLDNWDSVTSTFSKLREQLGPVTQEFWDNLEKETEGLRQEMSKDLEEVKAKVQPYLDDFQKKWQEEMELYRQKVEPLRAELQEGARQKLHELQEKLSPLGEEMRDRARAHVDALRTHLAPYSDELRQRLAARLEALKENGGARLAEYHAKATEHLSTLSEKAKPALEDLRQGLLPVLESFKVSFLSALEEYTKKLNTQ

Mass A1PI in Urea Eluate (mg), Activity (A1PI [1]; 1 mg A1PI, eluted with 2M urea, pH 6, elastase inhibition activity assay): 0.36 mg
Mass A1PI in Urea Eluate (mg), Nephelometry (A1PI [1]; 1 mg A1PI, eluted with 2M urea, pH 6, immunonephelometry): 0.45 mg
Specific Activity (A1PI [1]; mass of A1PI by activity assay relative to immunonephelometry, urea eluate): 0.81 mg/mg
Percent Eluted by Fraction, 1M NaCl (AlPI; peptide density 6 μmol/g): 12%
Percent Eluted by Fraction, 4M GdnHCl (AlPI; peptide density 6 μmol/g): 0%
Percent Eluted by Fraction, Flowthrough (AlPI; peptide density 6 μmol/g): 88%
Mass AlPI per Eluate Fraction, 1M NaCl (AlPI; peptide density 6 μmol/g): 0.09 mg
Mass AlPI per Eluate Fraction, Flowthrough (AlPI; peptide density 6 μmol/g): 0.69 mg
Percent Eluted by Fraction, 1M NaCl (AlPI; peptide density 17 μmol/g): 44%
Percent Eluted by Fraction, 4M GdnHCl (AlPI; peptide density 17 μmol/g): 7%
Percent Eluted by Fraction, Flowthrough (AlPI; peptide density 17 μmol/g): 49%
Mass AlPI per Eluate Fraction, 1M NaCl (AlPI; peptide density 17 μmol/g): 0.36 mg
Mass AlPI per Eluate Fraction, 4M GdnHCl (AlPI; peptide density 17 μmol/g): 0.05 mg
Mass AlPI per Eluate Fraction, Flowthrough (AlPI; peptide density 17 μmol/g): 0.39 mg
Percent Eluted by Fraction, 1M NaCl (AlPI; peptide density 54 μmol/g): 0%
Percent Eluted by Fraction, 4M GdnHCl (AlPI; peptide density 54 μmol/g): 74%
Percent Eluted by Fraction, Flowthrough (AlPI; peptide density 54 μmol/g): 26%
Mass AlPI per Eluate Fraction, 4M GdnHCl (AlPI; peptide density 54 μmol/g): 0.57 mg
Mass AlPI per Eluate Fraction, Flowthrough (AlPI; peptide density 54 μmol/g): 0.20 mg
Percent Eluted by Fraction, 1M NaCl (AlPI; peptide density 62 μmol/g): 0%
Percent Eluted by Fraction, 4M GdnHCl (AlPI; peptide density 62 μmol/g): 83%
Percent Eluted by Fraction, Flowthrough (AlPI; peptide density 62 μmol/g): 17%
Mass AlPI per Eluate Fraction, 4M GdnHCl (AlPI; peptide density 62 μmol/g): 0.70 mg
Mass AlPI per Eluate Fraction, Flowthrough (AlPI; peptide density 62 μmol/g): 0.14 mg
Percent Eluted by Fraction, 1M NaCl (AlPI; peptide density 70 μmol/g): 0%
Percent Eluted by Fraction, 4M GdnHCl (AlPI; peptide density 70 μmol/g): 72%
Percent Eluted by Fraction, Flowthrough (AlPI; peptide density 70 μmol/g): 28%
Mass AlPI per Eluate Fraction, 4M GdnHCl (AlPI; peptide density 70 μmol/g): 0.69 mg
Mass AlPI per Eluate Fraction, Flowthrough (AlPI; peptide density 70 μmol/g): 0.26 mg
Percent Eluted by Fraction, 1M NaCl (AlPI; peptide density 100 μmol/g): 0%
Percent Eluted by Fraction, 4M GdnHCl (AlPI; peptide density 100 μmol/g): 82%
Percent Eluted by Fraction, Flowthrough (AlPI; peptide density 100 μmol/g): 18%
Mass AlPI per Eluate Fraction, 4M GdnHCl (AlPI; peptide density 100 μmol/g): 0.57 mg
Mass AlPI per Eluate Fraction, Flowthrough (AlPI; peptide density 100 μmol/g): 0.13 mg
Mass A1PI per Eluate Fraction, 2% Acetic Acid (A1PI [2]; Table 11): 0.57 mg
Mass A1PI per Eluate Fraction, Flowthrough (A1PI [2]; Table 11): 0.13 mg
Percent Eluted by Fraction, 1M NaCl (A1PI [2]; Table 11, A1PI): 0%
Percent Eluted by Fraction, 2% Acetic Acid (A1PI [2]; Table 11, A1PI): 82%
Percent Eluted by Fraction, Flowthrough (A1PI [2]; Table 11, A1PI): 18%
Mass A1PI per Eluate Fraction, 1M NaCl (A1PI [2]; Table 13): 0.07 mg
Mass A1PI per Eluate Fraction, 2% Acetic Acid (A1PI [2]; Table 13): 0.91 mg
Mass A1PI per Eluate Fraction, Flowthrough (A1PI [2]; Table 13): 0.32 mg
Percent Eluted by Fraction, 1M NaCl (A1PI [2]; Table 13, A1PI): 5%
Percent Eluted by Fraction, 2% Acetic Acid (A1PI [2]; Table 13, A1PI): 70%
Percent Eluted by Fraction, Flowthrough (A1PI [2]; Table 13, A1PI): 25%
Substance: VIFLVR

Percent Eluted by Fraction, 1M NaCl [3]: 0%
Percent Eluted by Fraction, 2% Acetic Acid [3]: 48%
Percent Eluted by Fraction, 3M NaCl [3]: 0%
Percent Eluted by Fraction, Flow [3]: 52%
Mass Protein per Eluate Fraction, 2% Acetic Acid [3, 4]: 0.29 mg
Mass Protein per Eluate Fraction, Flow [3, 4]: 0.32 mg
Percent Eluted by Fraction, 1M NaCl (A1PI [2]; A1PI): 9%
Percent Eluted by Fraction, 2% Acetic Acid (A1PI [2]; A1PI): 43%
Percent Eluted by Fraction, 3M NaCl (A1PI [2]; A1PI): 0%
Percent Eluted by Fraction, Flow (A1PI [2]; A1PI): 48%
Mass Protein per Eluate Fraction, 1M NaCl (A1PI [2]; [5]): 0.10 mg
Mass Protein per Eluate Fraction, 2% Acetic Acid (A1PI [2]; [5]): 0.51 mg
Mass Protein per Eluate Fraction, Flow (A1PI [2]; [5]): 0.58 mg
Mass A1PI per Eluate Fraction, 1M NaCl (A1PI [2]; Table 11): 0.10 mg
Mass A1PI per Eluate Fraction, 2% Acetic Acid (A1PI [2]; Table 11): 0.51 mg
Mass A1PI per Eluate Fraction, Flowthrough (A1PI [2]; Table 11): 0.58 mg
Percent Eluted by Fraction, 1M NaCl (A1PI [2]; Table 11, A1PI): 9%
Percent Eluted by Fraction, 2% Acetic Acid (A1PI [2]; Table 11, A1PI): 43%
Percent Eluted by Fraction, Flowthrough (A1PI [2]; Table 11, A1PI): 48%
Substance: VIWLVR
Percent Eluted by Fraction, 1M NaCl (Immunoglobulin A (IgA)): 24%
Percent Eluted by Fraction, 2% Acetic Acid (Immunoglobulin A (IgA)): 39%
Percent Eluted by Fraction, 3M NaCl (Immunoglobulin A (IgA)): 0%
Percent Eluted by Fraction, Flow (Immunoglobulin A (IgA)): 37%
Mass Protein per Eluate Fraction, 1M NaCl (Immunoglobulin A (IgA); [4]): 0.11 mg
Mass Protein per Eluate Fraction, 2% Acetic Acid (Immunoglobulin A (IgA); [4]): 0.18 mg
Mass Protein per Eluate Fraction, Flow (Immunoglobulin A (IgA); [4]): 0.17 mg
Percent Eluted by Fraction, 1M NaCl (Immunoglobulin G (IgG)): 6%
Percent Eluted by Fraction, 2% Acetic Acid (Immunoglobulin G (IgG)): 0%
Percent Eluted by Fraction, 3M NaCl (Immunoglobulin G (IgG)): 0%
Percent Eluted by Fraction, Flow (Immunoglobulin G (IgG)): 94%
Mass Protein per Eluate Fraction, 1M NaCl (Immunoglobulin G (IgG); [4]): 0.02 mg
Mass Protein per Eluate Fraction, Flow (Immunoglobulin G (IgG); [4]): 0.36 mg
